The record followed here is patent US20020081614, “Functional genomics using zinc finger proteins” (Sangamo BioSciences, Inc., published 2002).

In series [1] the test system is M6-111S ZFP-KRAB (pcK-M6-111S, printed pcK-M6-11S) (synthetic construct). Nature of the series: cell_activity. The note with it: cotransfected luciferase reporter; about 40% repression of endogenous VEGF. Background: In a reporter assay the amount or activity of a reporter protein is the signal.
The test system of series [2] is M6-111S ZFP-VP16 (pcV-M6-111S) (synthetic construct). Nature of the series: cell_activity. The note with it: 293 cells; target printed ATGGGGGTC in Table 1 but ATGGGGGTG in p236 and p241.
For series [3], the system named is M6-2009S ZFP-VP16 (pcV-M6-2009S, also written M6-2009A) (synthetic construct). Nature of the series: cell_activity. The note with it: 293 cells; reporter pGLPVFH, table title endogenous VEGF; location -363.
In series [4] the test system is M6-1878S ZFP-VP16 (pcV-M6-1878S) (synthetic construct). Description: cell_activity. The note with it: 293 cells; reporter pGLPVFH, table title endogenous VEGF; location -536.
The subject of series [5] is M6-120S ZFP-VP16 (pcV-M6-120S) (synthetic construct). Description: cell_activity. The note with it: 293 cells; reporter pGLPVFH, table title endogenous VEGF; location -2243.
The next series has as its target T1, VF471A-VP16 (pcV-VF471A) (synthetic construct).
T1 chain: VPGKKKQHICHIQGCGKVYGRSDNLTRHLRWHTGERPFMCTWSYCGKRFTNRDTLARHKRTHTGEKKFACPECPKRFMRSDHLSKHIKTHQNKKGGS
Nature of the series: cell_activity; luciferase reporter in 293 cells, vs pcV-RAN. As to the method:
All plasmid DNA was prepared using Qiagen plasmid purification kits. The human embryonic kidney 293 cells were seeded into each well of a 6-well plate with a density to reach approximately 70% confluence the next day. Cells were co-transfected with 50 ng effector DNA (ZFP-expression plasmid), 900 ng reporter DNA and 100 ng pCMV-LacZ DNA using either Lipofectamine (GIBCO-BRL, MD) or GenePORTER (Gene Therapy Systems Inc, CA) transfection reagent. The co-expressed β-galactosidase activity was used a control to normalize the luciferase activity. Cell lysates were harvested 40 to 48 hours after transfection. Luciferase assays were performed using the Dual-Light Luciferase and β-galactosidase Reporter Assay System (Tropix, MA).
When the VP16 domain was replaced with a peptide, which has no transcription regulation activity, this zinc finger protein (pcV-VF471A-cat) lost its activity of trans-activating the luciferase gene. […] Therefore, the DNA binding domain (VF471A ZFP) combined with the regulation domain (VP16) in this example were able to turn on the gene at an appropriate target sites.

As to “ATGGGGGTG (double strand) [M6-111S site]”, the activity in series [1] stood at 80 % repression. The molecule further came in with an activity (fold activation) in series [2] of 4.1. On to “GAAGGGGGC (double strand) [M6-2009S site]”, for which, in series [3], the activity (fold activation) was found to be 4.5. Molecule “GAGTGTGTG (double strand) [M6-1878S site]” showed an activity (fold activation) in series [4] of 4.2. The molecule “GGGGGTGCC (double strand) [M6-120S site]” returned an activity (fold activation) in series [5] of 13.8.

B1: reporter with three tandem M6-1892S sites (pGLP-VF471x3) (dsDNA)
DNA 1: GGGGTTGAG
DNA 2: CTCAACCCC
B1: in the series with VF471A-VP16 (pcV-VF471A), the activity is 8 fold activation.
